According to patent US20250387465A1:

Tests used:
[1] = molecular target: ferritin-PreF fusion protein RSV-PreF-C-NP (respiratory syncytial virus (Pre-F part); species of the ferritin not stated); assay: ELISA, fusion protein coated, F protein antibody 1:1500 as primary; protein kept 1 h at pH 7.4, 25 C (untreated reference); mean of 10- to 10000-fold dilutions
[2] = molecular target: ferritin-PreF fusion protein RSV-PreF-C-NP (respiratory syncytial virus (Pre-F part); species of the ferritin not stated); assay: ELISA, fusion protein coated, F protein antibody 1:1500 as primary; protein kept 1 h at 70 C, pH 7.4; against untreated protein; mean of 10- to 10000-fold dilutions
[3] = molecular target: ferritin-PreF fusion protein RSV-PreF-C-NP (respiratory syncytial virus (Pre-F part); species of the ferritin not stated); assay: ELISA, fusion protein coated, F protein antibody 1:1500 as primary; protein kept 1 h at pH 10, 25 C; against untreated protein; mean of 10- to 10000-fold dilutions
[4] = molecular target: ferritin-PreF fusion protein RSV-PreF-C-NP (respiratory syncytial virus (Pre-F part); species of the ferritin not stated); assay: ELISA with F protein antibody after 1 h at pH 3.8, pH 10, 50 C or 70 C
[5] = molecular target: ferritin-PreF fusion protein RSV-PreF-F-NP (respiratory syncytial virus (Pre-F part); species of the ferritin not stated); assay: as above
[6] = molecular target: ferritin-PreF fusion protein RSV-PreF-B-NP (respiratory syncytial virus (Pre-F part); species of the ferritin not stated); assay: as above
[7] = molecular target: ferritin-PreF fusion protein RSV-PreF-H-NP (respiratory syncytial virus (Pre-F part); species of the ferritin not stated); assay: as above
[8] = molecular target: ferritin-PreF fusion protein RSV-PreF-D-NP (respiratory syncytial virus (Pre-F part); species of the ferritin not stated); assay: as above
[9] = molecular target: ferritin-PreF fusion protein RSV-PreF-G-NP (respiratory syncytial virus (Pre-F part); species of the ferritin not stated); assay: as above
[10] = molecular target: ferritin-PreF fusion protein RSV-PreF-A-NP (respiratory syncytial virus (Pre-F part); species of the ferritin not stated); assay: as above
[11] = molecular target: ferritin-PreF fusion protein RSV-PreF-E-NP (respiratory syncytial virus (Pre-F part); species of the ferritin not stated); assay: as above
[12] = molecular target: ferritin-PreF fusion protein RSV-PreF-C-NP (respiratory syncytial virus (Pre-F part); species of the ferritin not stated); assay: ELISA, fusion protein coated, F protein antibody 1:1500 as primary; protein kept 1 h at pH 3.8, 25 C; against untreated protein; mean of 10- to 10000-fold dilutions
[13] = molecular target: ferritin-PreF fusion protein RSV-PreF-C-NP (respiratory syncytial virus (Pre-F part); species of the ferritin not stated); assay: ELISA, fusion protein coated, F protein antibody 1:1500 as primary; protein kept 1 h at 50 C, pH 7.4; against untreated protein; mean of 10- to 10000-fold dilutions

F protein antibody (PujianBiotech (Wuhan), Cat #62814)
Percentage of ELISA Signal Intensity Retained After Physical Stress Challenges [1]: 100%
Percentage of ELISA Signal Intensity Retained After Physical Stress Challenges [2]: 77.1%
Percentage of ELISA Signal Intensity Retained After Physical Stress Challenges [3]: 83.6%
antigen-binding activity retained against the original untreated protein [4]: > 75%
antigen-binding activity retained against the original untreated protein [5]: > 75%
antigen-binding activity retained against the original untreated protein [6]: > 75%
antigen-binding activity retained against the original untreated protein [7]: > 75%
antigen-binding activity retained against the original untreated protein [8]: > 75%
antigen-binding activity retained against the original untreated protein [9]: > 75%
antigen-binding activity retained against the original untreated protein [10]: > 75%
antigen-binding activity retained against the original untreated protein [11]: > 75%
Percentage of ELISA Signal Intensity Retained After Physical Stress Challenges [12]: 77.3%
Percentage of ELISA Signal Intensity Retained After Physical Stress Challenges [13]: 91.2%
